Experiment [1] deals with T1, recombinant mouse cold-inducible RNA-binding protein (mouse, UniProt P60824 1-172).
T1 construct: also called rmCIRP; eCIRP
T1 sequence (looked up): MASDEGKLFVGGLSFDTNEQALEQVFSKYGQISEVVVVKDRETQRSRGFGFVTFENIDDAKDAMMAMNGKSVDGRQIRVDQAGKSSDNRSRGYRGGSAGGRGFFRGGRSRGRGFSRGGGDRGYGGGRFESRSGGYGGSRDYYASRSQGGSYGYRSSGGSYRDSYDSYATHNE
In words: SPR; OpenSPR (Nicoya); OP18 (10 µg/mL in 10 mM acetate pH 5) immobilised on channel 2, channel 1 as reference; analytes eCIRP 31.3-2,000 nM, HMGB1 10-450 nM, αvβ3 integrin 10-100 nM, histone H3 22.5-270 nM in HBST (10 mM HEPES, 150 mM NaCl, 0.005% P20, 5 mM EDTA, pH 7.4); 40 µL/min, 20°C; global fit 1:1. The settings on record: both partners purified. (In general: In SPR one partner is held on a chip, and binding of the other changes the refractive index at the surface.)

Experiment [2] concerns the target T2, recombinant human high mobility group box 1 (human, UniProt P09429 1-215).
T2 construct: human HMGB1, recombinant, bought; see the vendor's sheet; also called rhHMGB1; HMGB1; source: bought: R&D System (Cat. No. 1690-HMB-050)
T2 sequence (looked up): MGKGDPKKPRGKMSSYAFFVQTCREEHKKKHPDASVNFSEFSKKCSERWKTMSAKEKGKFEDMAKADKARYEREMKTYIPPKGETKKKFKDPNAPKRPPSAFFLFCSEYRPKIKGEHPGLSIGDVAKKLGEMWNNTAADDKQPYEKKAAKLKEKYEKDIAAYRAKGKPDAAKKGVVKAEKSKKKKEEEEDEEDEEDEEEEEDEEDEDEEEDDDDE
The description is as above. Particulars: both partners purified.

B1: opsonic peptide 18 (peptide)
peptide: GNFNSSNIMKTCLQNRGD
notes: also called OP18; source: synthetic peptide (GenScript)
As for B1, the binding result in experiment [1] and in experiment [2] was “binds” each time.

Source of the values: publication PMC12104086, “Identification of a multiple DAMP scavenger mimicking the DAMP-binding site of TLR4 to ameliorate lethal sepsis” (Frontiers in Immunology, 2025).
